In the supplement of paper PMC7125110:
± gives the standard error. Fewer inactive variants are shown than the library holds.

B1: glmS ribozyme (parent)
chain: AUAAAAGCGCCAGAACUACAGAAAUGUAGUUGACGAGGAGGAGGUUUAUCGAAUUUUCGGCGGAUGCCUCCAAA

Legend:
Conditions in all cases: with glucosamine-6-phosphate
glucosamine-6-phosphate [1] = variants of: B1; experiment: self-cleavage kobs at 40 uM GlcN6P; higher = faster cleavage; RNA array
How it was run: (§1)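 E. coli RNA polymerase transcribed barcoded ribozyme variants in situ on sequenced MiSeq chips, which were tracked via a hybridised Cy3 probe at 37 °C. Tiles were imaged over ~14 h after glucosamine-6-phosphate (40 μM to 10 mM) in HEPES/KCl/Mg(OAc)2 buffer was flowed in. Normalised per-tile medians were fit to one- or two-exponential decays for kobs, and kcat and KM came from weighted Michaelis–Menten fits.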

glucosamine-6-phosphate [2] = variants of: B1; experiment: self-cleavage kobs at 10000 uM GlcN6P; higher = faster cleavage; RNA array
How it was run: as §1

glucosamine-6-phosphate [3] = variants of: B1; experiment: self-cleavage kobs at 160 uM GlcN6P; higher = faster cleavage; RNA array
How it was run: as §1

glucosamine-6-phosphate [4] = variants of: B1; experiment: self-cleavage kobs at 640 uM GlcN6P; higher = faster cleavage; RNA array
How it was run: as §1

glucosamine-6-phosphate [5] = variants of: B1; experiment: self-cleavage kobs at 2500 uM GlcN6P; higher = faster cleavage; RNA array
How it was run: as §1

Variant | self-cleavage kobs at 40 uM GlcN6P (glucosamine-6-phosphate [1]) [s⁻¹] | self-cleavage kobs at 10000 uM GlcN6P (glucosamine-6-phosphate [2]) [s⁻¹] | self-cleavage kobs at 160 uM GlcN6P (glucosamine-6-phosphate [3]) [s⁻¹] | self-cleavage kobs at 640 uM GlcN6P (glucosamine-6-phosphate [4]) [s⁻¹] | self-cleavage kobs at 2500 uM GlcN6P (glucosamine-6-phosphate [5]) [s⁻¹]
AUAAAAGCGCCAGAACUACAGAAAUGUAGCUGACGACGAGGAGGUUUAUCGAAUUUUAGUCGGAUGCCUCCAAA [U30C G37C C58A G60U] | < 1e-05 | < 1e-05 |  |  | 
AUAAAAGCGCCAGAACUACAGAAAUGUAGUAGGCGAGGUGGAAGUUUUUCGAAUUUUCGGCGGAUGCCUCCAAA [U31A A33G A39U G43A A48U] | < 1e-05 | < 1e-05 |  |  | 
AUAAAAGCGCCAGAACUACAGAAAUGUAGCUGACGAUGAGGAGGUUUAUCGAAUUUUCGGCGGAUGCCUCCAAA [U30C G37U] | < 1e-05 |  |  |  | 
AUAAAAGCGCCAGAACUACAGAAAUGUAGCUGACGAGGAGGAGAUUUAUCGAAUUUUCGGCGGAUGCCUCCAAA [U30C G44A] | < 1e-05 | < 1e-05 | < 1e-05 | < 1e-05 | 
AUAAAAGCGCCAGAACUACAGAAAUGUAGGUGACGAGUUGGAGGUUUAUCGAAUUUUCGGCGGAUACCUCCAAA [U30G G38U A39U G66A] | < 1e-05 | < 1e-05 |  |  | 
AUAAAAGCGCCAGAACUACAGAAAUGUAGGUGCCGAGGAGGCGGUUUAUCGAAUUUUCGGCGGAUGCCUCCAAA [U30G A33C A42C] | < 1e-05 | < 1e-05 |  |  | 
AUAAAAGCGCCAGAACUACAGAAAUGUAGGUGACGAGGAGGAGGUUUAUCGAAUUUUCGGCAGAUGCCUCCAAA [U30G G62A] | < 1e-05 | < 1e-05 | < 1e-05 | < 1e-05 | 
AUAAAAGCGCCAGAACUACAGAAAUGUAGCUGACGAGGAGGAGGUUUAUCGAAUUUUCGGCCGAUGCCUCCAAA [U30C G62C] | < 1e-05 | < 1e-05 |  | < 1e-05 | 
AUAAAAGCGCCAGAACUACAGAAAUGUAGGUGACGAGGAGGAGGUUUAUCGAGUUUUCGGCGGAUGCCUCCAAA [U30G A53G] | 0.000307 ± 5.3e-05 | 0.0151 ± 0.0037 | 0.00064 ± 0.00013 | 0.00172 ± 0.0004 | 0.00534 ± 0.00076
AUAAAAGCGCCAGAACUACAGAAAUGUAGCUGACUAGGAGAAGGUUAAUCGAAUUUACGGGGCAUGCCUACAAA [U30C G35U G41A U47A U57A C61G G63C C70A] | < 1e-05 | < 1e-05 |  |  | 
AUAAAAGCGCCAGAACUACAGAAAUGUAGGUGACGUGGAGGAGGUUUAUGGAAUUUUCGGCGGAUGUCUCCAAA [U30G A36U C50G C67U] | 0.000201 ± 3.9e-05 | 0.00055 ± 0.00011 |  |  | 
AUAAAAGCGCCAGAACUACAGAAAUGUAGCUGACAAGGAGGAGGUUUAUGGAAUUUUCGGUGGGUGCCUCCAAA [U30C G35A C50G C61U A64G] | 0.000165 ± 5.1e-05 |  |  |  | 
AUAAAAGCGCCAGAACUACAGAAAUGUAGCUGACGAGGAGGAGGUUUAUCCAAUUUUCGGCGGAUGCCUCCAAA [U30C G51C] | < 1e-05 | < 1e-05 |  |  | 
AUAAAAGCGCCAGAACUACAGAAAUGUAGGUGACGAGGAGGAGGUUUAUCGAAUUAUCGGCGGAUACCUCCAAA [U30G U56A G66A] | 5.14e-05 ± 1.7e-05 | 0.00252 ± 0.00061 |  |  | 
AUAAAAGCGCCAGAACUACAGAAAUGUAGCUGACGAGGAGGAGGUUCAUCGAAUUUUCGGCGGAUGCCUCCAAA [U30C U47C] | < 1e-05 |  | < 1e-05 |  | 
